Assay [1] addresses T1, recombinant human lymphotoxin-α homotrimer (human LTα3) (human, UniProt P01374 35-205).
T1 sequence (looked up): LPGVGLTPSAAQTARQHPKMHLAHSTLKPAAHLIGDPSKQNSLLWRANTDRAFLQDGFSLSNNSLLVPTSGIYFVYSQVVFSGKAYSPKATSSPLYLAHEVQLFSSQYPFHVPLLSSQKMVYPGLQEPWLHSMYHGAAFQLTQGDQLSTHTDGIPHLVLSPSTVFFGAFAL
As to the kind of experiment: cell-based or functional assay.

In assay [2] the target is T2, human LTα1β2 heterotrimer (R&D Systems) (human, UniProt P01374 35-205; Q06643 49-244, limits assumed).
T2 construct: also called LTαβ
T2 sequence (looked up) 1: T1 sequence (looked up)
T2 sequence (looked up) 2: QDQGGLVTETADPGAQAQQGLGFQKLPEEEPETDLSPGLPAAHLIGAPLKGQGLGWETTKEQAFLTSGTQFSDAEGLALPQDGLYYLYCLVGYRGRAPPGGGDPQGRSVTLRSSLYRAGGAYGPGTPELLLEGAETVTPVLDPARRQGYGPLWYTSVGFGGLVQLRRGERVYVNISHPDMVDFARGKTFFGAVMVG
As to the kind of experiment: ELISA on coated LTα1β2.

In assay [3] the target is T3, human cell-surface LTαβ complex (LTα complexed with LTβ on the cell surface) (human, UniProt P01374 35-205; Q06643 1-244).
T3 construct: whole, on cells; also called human LTαβ
T3 sequence (looked up) 1: T1 sequence (looked up)
T3 sequence (looked up) 2: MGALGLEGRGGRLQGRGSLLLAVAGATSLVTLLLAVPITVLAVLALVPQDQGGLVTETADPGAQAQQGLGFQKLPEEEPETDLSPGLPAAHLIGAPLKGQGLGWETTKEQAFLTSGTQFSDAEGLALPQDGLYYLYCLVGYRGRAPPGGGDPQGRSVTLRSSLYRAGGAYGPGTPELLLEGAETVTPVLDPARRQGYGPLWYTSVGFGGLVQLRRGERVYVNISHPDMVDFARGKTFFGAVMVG
The assay can be described thus: FACS titration on human Th2 cells, Alexa Fluor 647 conjugates. How it is done: Cells were washed, aspirated, and re-suspended in PBS with 2% FBS. Cells were analyzed on a FACSCALIBUR™ (dual laser) using […]™ software, and results analyzed on a FLOWJO™ analyzer (Treestar).

B1: human TNFRII.huIgG1 (ENBREL®) (Fc fusion, UniProt P20333 23-257, looked up)
chain: LPAQVAFTPYAPEPGSTCRLREYYDQTAQMCCSKCSPGQHAKVFCTKTSDTVCDSCEDSTYTQLWNWVPECLSCGSRCSSDQVETQACTREQNRICTCRPGWYCALSKQEGCRLCAPLRKCRPGFGVARPGTETSDVVCKPCAPGTFSNTTSSTDICRPHQICNVVAIPGNASMDAVCTSTSPTRSMAPGAVHLPQPVSTRSQHTQPTPEPSTAPSTSFLLPMGPSPPAEGSTGD
notes: extracellular domain; also called TNFRII.Fc; etanercept; not shown: Fc portion of a human IgG1
On to B1, for which the “IC50, blocking of human LT-induced cytotoxicity” value in assay [1] was found to be 0.83 nM. Moreover, the binding result in assay [2] is “no binding”; in assay [3], “no binding (tested: 100 ug/ml)”.

Source of the values: patent US20130011412A1 (Genentech, published 2013).
